Type: in vitro ADME
Details: 37 °C, polyacrylamide gel electrophoresis with autoradiography
Method: Stability of [^68Ga]Ga-GIP-C803 was studied in human plasma, wherein the agent was incubated at 37 °C for under 30 s, 5 min, 45 min, and 90 min. Thereafter, the samples were analyzed by polyacrylamide gel electrophoresis. To enable the interpretation of the results, a number of references were applied along with the molecular weight marker (Figure S2). The gel was imaged by GelDoc Go Imaging System (Biorad, Hercules, CA, USA) for protein/peptide signals and, thereafter, exposed to a phosphor-imager screen overnight and digitalized using the Cyclone Phosphor Imager system (PerkinElmer) for radioactivity signals. The amount of the sample radioactivity loaded on the gel was controlled by a reference drop of the same sample volume on a filter paper exposed to the same screen. The images were analyzed by ImageJ (NIH, Bethesda, MD, USA) and Image Lab (Biorad) software.
Radiolabeling of C803‐GIP
Figure 1S. Typical HPLC-chromatograms with UV absorption profile (lower panel) and radioactivity signal profile (upper panel) of [68Ga]Ga-C803-GIP.
Stability of [68Ga]Ga‐GIP‐C803 in human plasma
Stability of [68Ga]Ga-GIP-C803 was studied in human plasma, wherein the agent was incubated at 37 °C for under 30 seconds, 5 min, 45 min and 90 min. Thereafter, the samples were analyzed by polyacrylamide gel electrophoresis. […] The images were analyzed by ImageJ (NIH, US) and Image Lab (Biorad) software. […]

CC[C@H](C)[C@H](NC(=O)[C@H](CO)NC(=O)[C@H](Cc1ccc(O)cc1)NC(=O)[C@H](CC(=O)O)NC(=O)[C@H](CO)NC(=O)[C@@H](NC(=O)[C@H](Cc1ccccc1)NC(=O)[C@@H](NC(=O)CNC(=O)[C@H](CCC(=O)O)NC(=O)[C@@H](C)NC(=O)[C@@H](N)Cc1ccc(O)cc1)[C@@H](C)O)[C@@H](C)CC)C(=O)N[C@@H](C)C(=O)N[C@@H](CC(C)C)C(=O)N[C@@H](CC(=O)O)C(=O)N[C@@H](CCCCN)C(=O)N[C@H](C(=O)N[C@@H](Cc1c[nH]cn1)C(=O)N[C@@H](CCC(N)=O)C(=O)N[C@@H](CCC(N)=O)C(=O)N[C@@H](CCC(=O)O)C(=O)N[C@@H](Cc1ccccc1)C(=O)N[C@H](C(=O)N[C@@H](CCC(=O)O)C(=O)N[C@@H](Cc1c[nH]c2ccccc12)C(=O)N[C@@H](CC(C)C)C(=O)N[C@@H](CCCCN)C(=O)N[C@@H](C)C(=O)NCC(=O)NCC(=O)N[C@@H](Cc1c[nH]cn1)C(=O)N1CCC[C@H]1C(=O)N[C@@H](CO)C(=O)NCC(=O)N[C@@H](C)C(=O)N1CCC[C@H]1C(=O)N1CCC[C@H]1C(=O)N1CCC[C@H]1C(=O)N[C@@H](CO)C(=O)N[C@@H](CSCCS(=O)(=O)CCN1CCN(CC(=O)O)CCN(CC(=O)O)CCN(CC(=O)O)CC1)C(N)=O)[C@@H](C)CC)[C@@H](C)CC [[^68Ga]Ga-C803-GIP, metal not drawn]
time stable in human plasma (incubated <30 s, 5, 45, 90 min): at least 90 min
stability in human plasma (in words) (up to 90 min): stable

Reference: paper PMC9864903, “Imaging of the Glucose-Dependent Insulinotropic Polypeptide Receptor Using a Novel Radiolabeled Peptide Rationally Designed Based on Endogenous GIP and Synthetic Exendin-4 Sequences” (Pharmaceuticals, 2022)
